This note sets out measurements from patent CN113980129A (DONGDA BIOTECHNOLOGY SUZHOU CO LTD, dated 2022).

Experiment [1] concerns the target T1, 重组人IL-11 (recombinant human interleukin-11) (human, UniProt P20809 22-199).
T1 construct: Called recombinant human IL-11 as immunogen; the assays say only IL-11; also called IL-11抗原; IL-11-Biotin
T1 sequence (looked up): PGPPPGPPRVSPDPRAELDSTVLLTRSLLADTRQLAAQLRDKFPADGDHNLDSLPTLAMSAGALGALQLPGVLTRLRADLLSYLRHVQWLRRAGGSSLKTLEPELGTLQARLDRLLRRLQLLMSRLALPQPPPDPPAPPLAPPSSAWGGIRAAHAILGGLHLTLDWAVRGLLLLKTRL
Kind of experiment: SPR (Biacore), antibody captured on anti-human IgG CM5 chip, IL-11 as analyte.

Experiment [2] has as its target T1, 重组人IL-11 (recombinant human …). Briefly: FACS, blocking of IL-11-biotin binding to 293T-IL-11Rα/gp130 cells. (In general: In flow cytometry, cells or beads pass a laser one at a time.)
Experiment [3] shares this target. Kind of experiment: cell-based or functional assay.
The target is the same in experiment [4]. Briefly: ELISA, IL-11 coated on plate. For orientation: In an ELISA, binding on a coated surface is turned into a signal by an enzyme label.

B1: hu16E12-hIgG4 (antibody, V domains shown)
VH: QVQLVQSGAEVKKPGASVKVSCKASGYTFTSYYMYWVRQAPGQGLEWIGEINPSNGGTDFNEKFKNRVTMTVDTSISTAYMELSRLRSDDTAVYYCTREEIHYGYDKGFAYWGQGTLVTVSS
VL: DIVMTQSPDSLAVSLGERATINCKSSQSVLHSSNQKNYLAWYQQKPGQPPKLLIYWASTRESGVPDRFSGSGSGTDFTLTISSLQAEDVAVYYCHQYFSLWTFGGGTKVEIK
notes: also called 16E12人源化抗体; hu16E12 Wild Type
What is called Kd is a measure of binding affinity in units of concentration. For orientation: koff means the rate constant with which the complex falls apart. One may read the kon as a measure of how fast the partners come together. Usually IC50 stands for the concentration that inhibits the measured activity by half. One may read the EC50 as the concentration at which the effect is half-maximal. As to B1, in experiment [1], the Kd was 0.0158 nM, the off-rate constant (koff) amounted to 4.66e-05 s⁻¹ and the kon amounted to 2.96e+06 M⁻¹ s⁻¹. The IC50 in experiment [2] turned out to be 0.0679 µg/mL. Moreover, the “IC50, STAT3 luciferase reporter in DLD1-IL-11R-pSTAT3-Luc cells” value in experiment [3] worked out at 1.16 ng/mL. The EC50 in experiment [4] is 0.0624 µg/mL.

B2: hu10C2-hIgG4 (antibody, V domains shown)
VH: QVHLVQSGAEVKKPGSSVKVSCKAPGYTFSSYWIEWVRQAPGQGLEWIGEILPGSGNTNYNEKFKGRATFTADTSTSTAYMELSSLRSEDTAVYYCASPSSTVDYAMDYWGQGTLVTVSS
VL: EIVLTQSPGTLSLSPGERATLSCRASRSVSTSGYNYMHWYQQKPGQAPRLLIFLASNLESGIPDRFSGSGSGTDFTLTISRLEPEDFAVYYCQHSRELPYTFGQGTKLEIK
notes: also called 10C2人源化抗体
Consider B2, for which, in experiment [1], the dissociation constant (Kd) was determined as 0.0149 nM, the koff was 2.2e-05 s⁻¹ and the kon was found to be 1.47e+06 M⁻¹ s⁻¹. In addition, in experiment [2], the half-maximal inhibitory concentration (IC50) stood at 0.0811 µg/mL. The “IC50, STAT3 luciferase reporter in DLD1-IL-11R-pSTAT3-Luc cells” value in experiment [3] turned out to be 4.86 ng/mL. Moreover, in experiment [4], the concentration giving a half-maximal response (EC50) turned out to be 0.0659 µg/mL.
